Experimental data reported in patent US20220057381A1.

Legend:
Assay in all cases: cell-based or functional assay
[1] = biological target: BCMA on multiple myeloma target cells (KILR MM-1R; RPMI8226_Luc) (UniProt Q02223)
[2] = biological target: LCAR-B38M CAR (on LCAR-B38M CAR-T drug product cells)
[3] = biological target: KLK2 CAR (on KLK2 CAR-T cells)

LCAR-B38M CAR (on LCAR-B38M CAR-T drug product cells) (receptor)
% Total Killing, sample PQ-0330 Donor B MOI = 1.5 on RPMI8226 luc target cells [1]: 77% | % Total Killing, sample SH19-28 on RPMI8226 Luc target cells [1]: 67%

Soluble Human BCMA Protein (sBCMA) (from UniProt Q02223 1-54) (receptor)
% CAR-T Killing of KILR MM-1R cells, baseline = CAR-T cells blocked with 50 ug/mL sBCMA lot C108P1-86BF2-NX [2]: 42% | % CAR-T Killing of KILR MM-1R cells, baseline = CAR-T cells blocked with 100 ug/mL sBCMA lot C108P1-86BF2-NX [2]: 59% | % CAR-T Killing of KILR MM-1R cells, baseline = CAR-T cells blocked with 150 ug/mL sBCMA lot C108P1-86BF2-NX [2]: 68% | % CAR-T Killing of KILR MM-1R cells, baseline = CAR-T cells blocked with 200 ug/mL sBCMA lot C108P1-86BF2-NX [2]: 74% | % CAR-T Killing of KILR MM-1R cells, baseline = CAR-T cells blocked with 250 ug/mL sBCMA lot C108P1-86BF2-NX [2]: 79% | % CAR-T Killing of KILR MM-1R cells, baseline = CAR-T cells blocked with 300 ug/mL sBCMA lot C108P1-86BF2-NX [2]: 79% | % CAR-T Killing of KILR MM-1R cells, baseline = CAR-T cells blocked with 400 ug/mL sBCMA lot C108P1-86BF2-NX [2]: 62% | % CAR-T Killing, Blocking method, sample PQ-0330 Donor B MOI = 1.5 on K562 Luc (non-B cell) target cells [2]: -46% | % CAR-T Killing, Blocking method, sample PQ-0330 Donor B MOI = 1.5 on RPMI8226 luc target cells [2]: 28% | % CAR-T Killing, Blocking method, sample SH19-28 on K562 Luc (non-B cell) target cells [2]: -41% | % CAR-T Killing, Blocking method, sample SH19-28 on RPMI8226 Luc target cells [2]: 29% | % Control T Cell Killing (blocked baseline), Blocking method, sample PQ-0330 Donor B MOI = 1.5 on RPMI8226 luc target cells [2]: 67% | % Control T Cell Killing (blocked baseline), Blocking method, sample SH19-28 on K562 Luc (non-B cell) target cells [2]: 39% | % Control T Cell Killing (blocked baseline), Blocking method, sample SH19-28 on RPMI8226 Luc target cells [2]: 53%

soluble human KLK2 protein (sKLK2) with C-terminal His6 tag (from UniProt P20151 25-261)
% CAR-T Killing of KILR LNcaP-KLK2 cells, baseline = SH20-KLK2-004-CAR-T blocked w/ 125 ug/mL KLK2 soluble protein (500 mg/mL) [3]: 107%

soluble human KLK2 protein (sKLK2) with C-terminal His6 tag (from UniProt P20151 25-261) (enzyme)
% CAR-T Killing of KILR LNcaP-KLK2 cells, baseline = SH20-KLK2-004-CAR-T blocked w/ 2.5 ug/mL KLK2 soluble protein (500 mg/mL) [3]: 49% | % CAR-T Killing of KILR LNcaP-KLK2 cells, baseline = SH20-KLK2-004-CAR-T blocked w/ 12.5 ug/mL KLK2 soluble protein (500 mg/mL) [3]: 68% | % CAR-T Killing of KILR LNcaP-KLK2 cells, baseline = SH20-KLK2-004-CAR-T blocked w/ 25 ug/mL KLK2 soluble protein (500 mg/mL) [3]: 79% | % CAR-T Killing of KILR LNcaP-KLK2 cells, baseline = SH20-KLK2-004-CAR-T blocked w/ 50 ug/mL KLK2 soluble protein (500 mg/mL) [3]: 96% | % CAR-T Killing of KILR LNcaP-KLK2 cells, baseline = SH20-KLK2-004-CAR-T blocked w/ 75 ug/mL KLK2 soluble protein (500 mg/mL) [3]: 106% | % CAR-T Killing of KILR LNcaP-KLK2 cells, baseline = SH20-KLK2-004-CAR-T blocked w/ 100 ug/mL KLK2 soluble protein (500 mg/mL) [3]: 111%
